Values of other authors in article PMC5996525.

Target: CTLA-4 (Homo sapiens) (UniProt P16410)
Assay: SPR

UniProt P16410, sequence (P16410 36-161): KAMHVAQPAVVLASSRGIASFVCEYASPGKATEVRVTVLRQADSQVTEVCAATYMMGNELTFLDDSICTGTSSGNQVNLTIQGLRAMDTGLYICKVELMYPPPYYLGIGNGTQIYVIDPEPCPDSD

- Kd: 5.89 nM
Substance: tremelimumab
